For one substance, Kd results are on record in US20240425612A1.

The pKd is −log10 of the Kd, conventionally taken in molar units. The low end stands for a high Kd, the high end for a low Kd.

For test [1], the target named is hFcγRIIIa-158V-streptavidin-His (human) (UniProt P08637). Description: BLI.
Test [2] has as its target hFcγRIIIa-158F-streptavidin-His (human) (UniProt P08637). Description: BLI.

pKd: −log10 of the molar value.

hFcγRIIIa-158F-streptavidin-His (human), sequence (P08637 17-208): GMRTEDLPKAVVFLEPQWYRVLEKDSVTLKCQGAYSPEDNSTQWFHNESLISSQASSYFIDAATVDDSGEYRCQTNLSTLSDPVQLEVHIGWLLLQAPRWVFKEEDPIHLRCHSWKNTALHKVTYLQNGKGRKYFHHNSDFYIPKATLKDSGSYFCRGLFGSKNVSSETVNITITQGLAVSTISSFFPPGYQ
hFcγRIIIa-158V-streptavidin-His (human), sequence (P08637 17-208 F176V): as the sequence (P08637 17-208) above, with F160V counted along it

In the case of “Trastuzumab-DE (S239D/I332E) from Xencor”, the negative logarithm of the Kd (pKd) in test [1] was 7.33; in test [2] it was 7.17.
